Reference: publication PMC6082141

Tests used:
[1] = target: carboxypeptidase A (CPA)-treated microtubules from porcine brain tubulin (porcine) (UniProt P02550); assay: TIRF microscopy, fluorescence intensity on MTs
[2] = target: microtubules assembled from porcine brain tubulin (porcine) (UniProt P02550); assay: TIRF microscopy, fluorescence intensity on MTs
[3] = target: microtubules assembled from porcine brain tubulin (porcine) (UniProt P02550); assay: TIRF microscopy, MT-MT sliding assay
[4] = target: microtubules assembled from porcine brain tubulin (porcine) (UniProt P02550); assay: single-molecule TIRF microscopy

| integrated p150 intensity on the MT (minus background, per pixel) [1] | integrated p150 intensity on the MT (minus background, per pixel) [2] | lifetime (τ) of foci of two MT minus-ends brought into contact and held by DDB [3] | dwell time at MT minus-ends, long population (τ2) [4] | percent of incoming molecules that dwell at MT minus-ends with DDB clusters [4] | percent of incoming molecules that dwell at bare (vacant) MT minus-ends [4] | Substance |
| --- | --- | --- | --- | --- | --- | --- |
| 1100 a.u. | 2950 a.u. | – | – | – | – | TMR-labeled p150-SNAP (from UniProt Q14203-1 1-1278) (natural protein) |
| – | – | 14.4 s | 54.8 s | 83% | 77% | dynein-dynactin-BicD2 co-complex (DDB) (from UniProt Q921C5 1-820; P38650 1-4644; P28023 1-1280) |
